Common to all, as to assay: EMSA
A general note: A gel shift assay detects complexes by their altered migration in electrophoresis.

Series [1] addresses T1, Oct4 POU domain (Mus musculus, UniProt P20263 P20263:126-289). The following applies: tags: N-terminal MBP tag removed by TEV protease; label: 5'-Cy5.
The target of series [2] is Sox17HMG (Mus musculus, UniProt Q61473 SEQ:68-136). The following applies: label: 5'-Cy5.
Series [3] addresses T2, Sox2HMGs (core HMG)/Oct4POU (Mus musculus, UniProt P48432;P20263 P48432:43-111,P20263:126-289). Particulars: label: 5'-Cy5. The protocol:
(§1) Electrophoretic mobility shift assays: All EMSAs were carried out using double-stranded 5′ Cy5-labeled DNA (Sigma Proligo, see Table 1) (Jauch, R., et al. J. Mol. Biol. (2008) 376(3):758-70). Binding buffer contains 20 mM Tris-HC1 pH 8.0, 50 μM ZnCl₂, 100 mM KCl, 10% glycerol, 2 mM 13-merceptoethanol, 0.1 mg/ml bovine serum albumin (BSA) and 0.1% (v/v) Igepal CA-630. 250nM dsDNA probes were mixed with analyte proteins singly or in combinations in binding buffer and incubated for 1 hr at 4° C. in dark. Samples were loaded into a pre-run 12% (w/v) IX Tris-glycine polyacrylamide gel in 1XTG (25 mM Tris, pH 8.3; 192 mM glycine) buffer to separate different species of bound and unbound probes. The fluorescence was detected using a Typhoon 9140 PhosphorImager (Amersham Biosciences).
(§2) FIG. 1: EMSAs to assess Sox7, Sox2HMGs and spacer nucleotides. To exclude artifacts that could have been caused by the length difference between the Sox2/Sox17 constructs, the differential assembly of the core Sox2HMG domain (termed Sox2HMGs) was tested. The domain spans the same range of amino acids of the Sox17 construct. The differential assembly of Sox7, another F group Sox protein with strong sequence similarities to Sox17 was also tested. Sox7 and Sox17 had comparably weak Oct4 heterodimerization on canonical elements whereas cooperative binding was observed on the compressed element. Thirdly, the spacer nucleotide of the canonical element on the remaining three possible nucleotides was varied (CATTGT(C/A/T/G)ATGCAAAT). The identity of the spacer nucleotide was found not to have a pronounced impact on the overall dimerization profile of the various Sox protein with Oct4. 50nM of Sox2HMGs, Sox7HMG and Sox17HMG were incubated with canonical elements containing different basebairs at position 7 of the Sox motif (C₁A₂T₃T₄G₅T₆(A/T/C/G)₇; A-D) and on the compressed element (E) in the absence (Lanes 1-3) or presence (Lanes 4-6) of 250 nM Oct4POU.

In series [4] the target is T3, Sox2HMG1/Oct4POU (Mus musculus, UniProt P48432;P20263 P48432:33-141,P20263:126-289). The following applies: label: 5'-Cy5. As to the method: as §1
(§3) FIG. 8: Differential assembly of Sox2HMG and Oct4POU (A) and Sox17HMG and Oct4 (E) on a series of different motif configurations. Motif configurations were systematically designed as outlined in FIG. 1A using 30bp DNA elements containing identical Sox (CATTGTC) and Oct4 (ATGCAAAT) consensus sequences flanked by GC rich sequences. To minimize binding anomalies due to cryptic elements at the periphery or within the spacer region we used idealized motifs (CATTGTC for sox and ATGCAAAT for oct) and introduced G's and C's as spacer and boundary nucleotides. Each DNA element was mixed with individual transcription factor proteins as well as with both Sox2 and Oct4 DBDs in combination (See supplementary information). 250 nM of every cy5-labelled DNA element was incubated with 50 nM Sox2HMG1/Sox17HMG and 250 nM Oct4POU proteins alone and in combination followed by PAGE to assess the formation of ternary Sox/Oct4/DNA complex. The position of the various protein DNA complexes are marked by arrows. The number of spacer basepairs is indicated above and below the gels. X=-1 denotes the compressed and X=0 the canonical elements. The co-occurrence of canonical and compressed motifs within genomic regions co-bound by Sox2 and Oct4 in mouse embryonic stem cells are depicted in (B). […]

Series [5] concerns the target T2, Sox2HMGs (core HMG)/Oct4POU. The following applies: label: 5'-Cy5. The protocol:
(§4) 250nM dsDNA probes were mixed with analyte proteins singly or in combinations in binding buffer and incubated for 1 hr at 4° C. in dark. Samples were loaded into a pre-run 12% (w/v) IX Tris-glycine polyacrylamide gel in 1XTG (25 mM Tris, pH 8.3; 192 mM glycine) buffer to separate different species of bound and unbound probes. The fluorescence was detected using a Typhoon 9140 PhosphorImager (Amersham Biosciences).
(§5) FIG. 10: (A) Alignment of the amino acid sequence of all mouse Sox proteins. The Sox subfamilies (Bowles, J. et al., Dev. Biol. (2000) 227: 239-55) are indicated to the right. The numbering corresponds to the Sox17 sequence. Alpha helices are marked with a red bar. The FM wedge is indicated with an orange bar below the alignment and further DNA interacting residues are marked by black closed circles. Highly conserved and similar sequences are shaded in black or gray. The position of glutamate and lysine residues distinguishing Sox17 and Sox2 is marked by an arrow. The eight amino acids in helix 3 of Sox2 that were replaced by their corresponding counterparts found in Sox17 to construct the Sox2″¹⁷ protein are colored red. (B) structural model prepared using pymol by using the structural coordinates for Sox17 and the Sox2/Oct1 on DNA. The van-der-Waals surface of the DNA derived from the Sox2/Oct1 structure is shown in light gray. Sox17 (blue) was superimposed onto Sox2 (gray). Oct1 is shown in black. Note that the linker region connecting the POU specific and the POU homedomain is not present in the NMR derived model due to structural disorder. The glutamate (Sox17) and the lysine (Sox2) that were mutated are shown as ball-and-sticks. Note that the lysine exists in two alternative conformations in the NMR model. (C)Point mutations at the Sox/Oct4 interface swap the differential assembly behavior of Sox2 and Sox17 on the canonical versus the compressed element DNA element derived from a functional sox/oct element within the Nanog enhancer were used (Rodda, D. J. et al. J Biol Chem (2005) 280:24731-7). 2 denotes Sox2HMGs, 17: Sox17HMG, 2KE: Sox2KE, 17EK: Sox17EK and 2α17 the replacement of all Sox2 residues in helix 3 that differ from the corresponding Sox17 residues into their Sox17 counterpart. Sox proteins were incubated with DNA individually and in combination with Oct4.
The source holds these as a separate data set.

The target of series [6] is Sox17EK HMG/Oct4POU (Mus musculus, UniProt Q61473;P20263 Q61473:68-136,P20263:126-289, Sox17 E122K). The following applies: label: 5'-Cy5. As to the method:
as §4, §5

Series [7] deals with Sox2KE HMG/Oct4POU (Mus musculus, UniProt P48432;P20263 P48432:43-111,P20263:126-289, Sox2 K95E). Particulars: label: 5'-Cy5. As to the method: as §4, §5
Series [8] has as its target T4, Sox17HMG/Oct4POU (Mus musculus, UniProt Q61473;P20263 Q61473:68-136,P20263:126-289). The following applies: label: 5'-Cy5. The protocol: as §4, §5
Series [9] concerns the target T1, Oct4 POU domain. Particulars: tags: N-terminal MBP tag removed by TEV protease; label: 5'-Cy5. As to the method:
as §1
(§6) FIG. 9: (A) Differential assembly of Sox2/Oct4 and Sox17/Oct4 on the compressed and canonical elements. Proteins were added to 250nM DNA elements in the sequences indicated above the lanes. To distinguish shifts caused by Sox2 and Sox17 a N and C-terminally extended Sox2-HMG (Sox2HMG1) domain was used in these experiments. As a consequence, both, the Sox2/DNA and the Sox2/Oct4/DNA complex, migrate slower than the corresponding Sox17 complexes, allowing us to visualize a Sox2/Oct4 and Sox17/Oct4 DNA complex on the same gel. […]
The source holds these as a separate data set.

Series [10] addresses Sox2HMG1 (extended HMG domain) (Mus musculus, UniProt P48432 SEQ:33-141). The following applies: label: 5'-Cy5. As to the method:
as §1, §6

The target in series [11] is Sox7HMG/Oct4POU (Mus musculus, UniProt P40646;P20263 P40646:45-113,P20263:126-289). Particulars: label: 5'-Cy5. The protocol:
as §1, §2

Series [12] deals with T4, Sox17HMG/Oct4POU. Particulars: label: 5'-Cy5. As to the method: as §1, §3
The source holds these as a separate data set.

The target of series [13] is T3, Sox2HMG1/Oct4POU. The following applies: label: 5'-Cy5. The protocol: as §1
Profiling of Sox/Oct4 Binding to Differentially Configured Motifs: To assess the preference of Sox2 and Oct4 to physically assemble on differentially configured sox/oct motifs in vitro, electrophoretic mobility shift assays (EMSA) were conducted using purified DNA binding domains (DBDs) of Sox2 and Oct4. The heterodimerization potential of Sox2/Oct4 DBD pairs was screened on a panel of systematically modified sox/oct composite motifs (FIG. 7A). A strong cooperative interaction of Sox2 and Oct4 on the canonical element was observed (x=0, FIG. 8A, lanes 5-7). […]
The source holds these as a separate data set.

T2 sequence (P48432 43-111, chain 1 of 2): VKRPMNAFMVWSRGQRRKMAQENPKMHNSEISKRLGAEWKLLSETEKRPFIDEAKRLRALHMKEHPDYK
T2 sequence (P20263 126-289, chain 2 of 2): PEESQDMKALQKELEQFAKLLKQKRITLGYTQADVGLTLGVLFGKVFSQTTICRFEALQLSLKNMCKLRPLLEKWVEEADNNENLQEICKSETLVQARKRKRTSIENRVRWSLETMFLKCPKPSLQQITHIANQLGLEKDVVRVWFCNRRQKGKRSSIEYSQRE
T3 sequence (P48432 33-141, chain 1 of 2): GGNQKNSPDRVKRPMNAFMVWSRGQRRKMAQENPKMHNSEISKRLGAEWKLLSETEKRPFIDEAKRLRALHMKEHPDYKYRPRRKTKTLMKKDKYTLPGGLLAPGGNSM
T3 sequence (P20263 126-289, chain 2 of 2): as the sequence (P20263 126-289, chain 2 of 2) above
T4 sequence (Q61473 68-136, chain 1 of 2): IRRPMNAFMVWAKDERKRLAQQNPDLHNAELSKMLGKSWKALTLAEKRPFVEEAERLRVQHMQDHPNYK
T4 sequence (P20263 126-289, chain 2 of 2): as the sequence (P20263 126-289, chain 2 of 2) above
Sequence of Sox17HMG (Q61473 68-136): as the sequence (Q61473 68-136, chain 1 of 2) above
Sequence of Sox17EK HMG/Oct4POU (Q61473 68-136 E122K, chain 1 of 2): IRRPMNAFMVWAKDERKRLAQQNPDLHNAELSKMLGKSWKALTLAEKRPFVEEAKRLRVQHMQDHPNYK
Sequence of Sox17EK HMG/Oct4POU (P20263 126-289, stated change not applied, chain 2 of 2): as the sequence (P20263 126-289, chain 2 of 2) above
T1 sequence (P20263 126-289, one chain of several): as the sequence (P20263 126-289, chain 2 of 2) above
Sequence of Sox7HMG/Oct4POU (P40646 45-113, chain 1 of 2): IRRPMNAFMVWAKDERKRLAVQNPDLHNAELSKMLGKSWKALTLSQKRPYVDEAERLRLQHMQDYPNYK
Sequence of Sox7HMG/Oct4POU (P20263 126-289, chain 2 of 2): as the sequence (P20263 126-289, chain 2 of 2) above
Sequence of Sox2KE HMG/Oct4POU (P48432 43-111, stated change not applied, chain 1 of 2): as the sequence (P48432 43-111, chain 1 of 2) above
Sequence of Sox2KE HMG/Oct4POU (P20263 126-289, stated change not applied, chain 2 of 2): as the sequence (P20263 126-289, chain 2 of 2) above
Sequence of Sox2HMG1 (extended HMG domain) (P48432 33-141): as the sequence (P48432 33-141, chain 1 of 2) above

B1: canonical sox/oct (0) (dsDNA)
DNA 1: GGCGCGGCATTGTCATGCAAATCGGCGGCG
DNA 2: CGCCGCCGATTTGCATGACAATGCCGCGCC
B1: the binding result in [1], in [2], in series [3] and in series [4] was “binds” in each case.

B2: Nanog canonical (dsDNA)
DNA 1: CATGGACATTGTAATGCAAAAGAAGCTG
DNA 2: CAGCTTCTTTTGCATTACAATGTCCATG
Regarding B2, the binding result in [5] and in series [6] was “binds” each time.

B3: Nanog' compressed (-1) (dsDNA)
DNA 1: CTGGACATTGTATGCAAAAGAA
DNA 2: TTCTTTTGCATACAATGTCCAG
B3: the binding result in series [7] is “binds”; in [8], “binds”; in [6], “no binding”.

B4: compressed sox/oct (-1) (dsDNA)
DNA 1: CGGCGCGGCATTGTATGCAAATCGGCGGCG
DNA 2: CGCCGCCGATTTGCATACAATGCCGCGCCG
In the case of B4, the binding result in series [2] is “binds”; in [9], “binds”; in [10], “binds”; in series [3], “no binding”; in series [11] it was “binds”; in series [4], “no binding”. Moreover, the binding result in series [12] was “binds”.

B5: order (dsDNA)
DNA 1: GGCGCGGATGCAAATCATTGTCCGGCGGCG
DNA 2: CGCCGCCGGACAATGATTTGCATCCGCGCC
For the molecule B5, the binding result in series [13] is recorded as “no binding”.
